Source: PMC7611331 (Nature microbiology, 2019)

Molecular target: T1, native FtsZ (Streptococcus pneumoniae R800, UniProt A0A0H2ZNE0 1-419)
T1 sequence (looked up): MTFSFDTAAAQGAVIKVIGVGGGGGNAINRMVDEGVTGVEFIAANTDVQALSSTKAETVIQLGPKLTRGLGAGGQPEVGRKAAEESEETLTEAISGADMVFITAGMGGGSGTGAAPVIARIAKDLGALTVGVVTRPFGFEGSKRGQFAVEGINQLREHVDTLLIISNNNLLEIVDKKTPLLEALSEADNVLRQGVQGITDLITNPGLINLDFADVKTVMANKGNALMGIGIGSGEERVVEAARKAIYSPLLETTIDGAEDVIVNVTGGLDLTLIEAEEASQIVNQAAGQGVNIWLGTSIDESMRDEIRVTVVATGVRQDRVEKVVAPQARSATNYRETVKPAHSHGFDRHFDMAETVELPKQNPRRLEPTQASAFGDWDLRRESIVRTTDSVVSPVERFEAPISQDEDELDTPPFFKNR
Assay: MST

B1: RocS-ΔAH-6His (domain or fragment, Streptococcus pneumoniae R800, UniProt Q8DQ15 1-150, looked up)
chain: MSIEMTVSEIAEVLGLSRQAINNRVKELPEEDTDKNDKGVTVVTRSGLIKLEEIYKKTIFEDEPVSEDVKQRELMEILVDEKNAEILRLYEQLKAKDRQLSEKDEQMRIKDRQIAEKDKQLDQQQQLTLQAMKDQENLKLELDQAKEEVQ
modifications: labeled with the red dye NT-647
binding result: binds
